# Reference: article doi:10.1101/2023.10.30.564768 (2023)
# Changes are numbered by the printed parent chain. Names may count otherwise.
# T1: His-RecA WT, activated as RecA* (nucleoprotein filament on ssDNA with ATPγS) (E. coli, UniProt P0A7G6 1-353)
# T1 chain: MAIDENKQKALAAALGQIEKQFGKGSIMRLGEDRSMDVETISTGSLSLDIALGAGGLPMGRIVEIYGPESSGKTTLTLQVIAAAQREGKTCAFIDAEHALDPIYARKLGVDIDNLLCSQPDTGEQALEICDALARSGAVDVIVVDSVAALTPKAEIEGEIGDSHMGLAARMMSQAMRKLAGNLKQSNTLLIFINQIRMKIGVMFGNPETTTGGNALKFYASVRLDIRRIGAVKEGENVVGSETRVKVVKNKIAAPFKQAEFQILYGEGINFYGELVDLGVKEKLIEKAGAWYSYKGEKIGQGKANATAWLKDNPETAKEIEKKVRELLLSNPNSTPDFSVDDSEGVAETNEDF
# B1: LexA quad-mutant (QM): L89P, Q92W, E152A, K156A (natural protein)
# chain: MKALTARQQEVFDLIRDHISQTGMPPTRAEIAQRLGFRSPNAAEEHLKALARKGVIEIVSGASRGIRLLQEEEEGLPLVGRVAAGEPLPAQWHIEGHYQVDPSLFKPNADFLLRVSGMSMKDIGIMDGDLLAVHKTQDVRNGQVVVARIDDAVTVARLKKQGNKVELLPENSEFKPIVVDLRQQSFTIEGLAVGVIRNGDWL
# B2: His-LexA K156A (natural protein)
# chain: B1 chain with P89L, W92Q, A152E
# Molecular target: T1, His-RecA WT, activated as RecA* …
# Assay: FP; competition against LexA-δ
row,Binder,IC50 [nM]
1,B1,3800
2,B2,500
